{
  "source": "patent US20240026407A1",
  "about": "“MODIFICATION OF SAPONINS” (GLAXOSMITHKLINE BIOLOGICALS SA, priority 2020, published 2024)",
  "key": {"[1]": {"assay": "Example 8: screening of glucosidase variants for deglycosylation of saponins in crude bark extract (FIOP)", "type": "biochemical, Quillaja saponaria", "settings": "Rham Present; for Cumulative FIOP (cf WT): estimate; for FIOP: fold improvement over parent", "method": "Libraries of genetic variants encoding mutations in the wild type Modestobacter marinus glucosidase (SEQ ID No. 262) were prepared using molecular biology techniques, enzymes were prepared linked to an N-terminally located His-tag. Single monoclonal colonies were grown in 400 ul of expression medium and protein expressed. Cell pellets were lysed in 200 ul of the relevant buffer (Table 16)\nLysate was diluted appropriately in the relevant buffer to allow a lysate loading of the indicated % loading (1% loading corresponds to use of 2 ul original lysate in a 200 ul reaction). In some experiments a rhamnosidase was also present during the screening reaction (and also in controls, negating any impact on results).\nCrude bark extract (CBE) obtained by aqueous extraction of Quillaja saponaria and containing at least 2.80 mg/ml QS-21 (by HPLC-UV). The pH of CBE was adjusted to pH 6 by dropwise addition of 2M NaOH with stirring. The relevant concentration of the relevant glucosidase was added. The appropriate relative volume of pH 6 CBE (160 ul (for 80%) or 150 ul (for 75%)) was added to each well of the reaction plate. The reaction plate was sealed and incubated at the relevant temperature with shaking overnight for between 18 and 22 hours.\nThe reaction plate was quenched by adding 200 uL of MeCN (2% AcOH, 1 mg/mL hexanophenone) to each well of the plates. The quenched reaction plate was re-sealed and incubated at 20 deg C. with shaking for 10 min. The reaction plate was then centrifuged (10 min, 4 degC).\n200 uL was transferred from each well of the quenched plate to the corresponding wells of a fresh 96 well plate and sealed. The plate was analysed by UV HPLC with the method below:\nA negative control (a lysate not expressing test enzymes) and a positive control (expressing the parent comparator—wild type or previous variant as appropriate). Fold improvement over parent (FIOP) for the glucosidase (shorter method) is calculated as follows:\n% right peak=100*right peak area/(right peak area+left peak area)\nAverage % right peak area is calculated for negative controls (per plate) and subtracted from all wells to give the increase in % right peak for each well above average negative control Average increase in % right peak is calculated for positive controls per plate\nFIOP=observed increase in % right peak divided by average positive control increase"}, "[2]": {"assay": "Example 10: deglucosylation of saponins in crude bark extract (50%) using WT and engineered glucosidases G1 to G5", "type": "biochemical, Quillaja saponaria", "settings": "7 h, 50% CBE, 35 degC; for % Right Peak: starting CBE 26; for % Left Peak: starting CBE 30; for % Middle Peak: starting CBE 44", "method": "Lyophilised powders from clarified cell lysate expressing glucosidases (from Example 8 WT glucosidase and engineered glucosidase polypeptides G1 to G5) and rhamnosidases (from Example 9 WT rhamnosidase and engineered rhamnosidase polypeptides R1 to R5) were dissolved in 200 mM sodium acetate aqueous solution at pH 5.8 to prepare the enzyme solutions at 4 fold the final reaction concentration as shown in Tables 19 and 20.\nEach glucosidase solution was combined with an equal volume of 200 mM sodium acetate aqueous solution at pH 5.8 and separately with an equal volume of 200 mM sodium acetate aqueous solution at pH 5.8 containing 2 mg/ml rhamnosidase R5. This is a sufficient loading of rhamnosidase to effect complete hydrolysis of the relevant rhamnose moiety within 4 hours.\nCBE was adjusted to pH of 6.0 to 6.2 with 2M sodium hydroxide and an equal volume added to the enzyme solution to prepare the reaction mix (i.e. 50% CBE concentration in reaction mix) and the concentration of glucosidase and/or rhamnosidase is shown in Tables 19 and 20. The reaction mix was heated to 35 degC for the time indicated in Tables 19 and 20, after which the reaction was quenched by addition of an equal volume of MeCN containing 2% acetic acid and shaken at room temperature for 10 mins prior to centrifugation (10 min, 4 degC) to remove particulates. Samples were analysed by UV HPLC using method of Experiment 4-4.\nThe change in composition of the Left, Middle and Right peaks is shown in Tables 19 and 20. The composition changes by the action of the enzymes depending on the presence or absence of the partner enzyme. The extent of reaction is proportional to the enzyme concentration and the reaction time under these conditions. The tables show data for enzyme concentrations and the reaction times providing for equivalent extents of reaction. The improvement resulting from the mutations introduced for each variant is equal to the fold change in enzyme concentration×time (i.e. fold improvement=(enzyme concentration×time) for preceding variant÷(enzyme concentration×time) for later variant). A cumulative fold improvement over the original enzyme variant is calculated by the product of the individual fold improvements."}, "[3]": {"settings": "screen temp 20, pH 6, lysate loading 2.50%, CBE loading 80%, 100 mM Potassium phosphate"}, "[4]": {"settings": "glucosidase 0.78 mg/ml + rhamnosidase R5 0.5 mg/ml"}, "[5]": {"settings": "glucosidase 0.78 mg/ml, no rhamnosidase"}, "[6]": {"settings": "screen temp 35, pH 6, lysate loading 0.28%, CBE loading 75%, 100 mM Sodium acetate"}, "[7]": {"settings": "glucosidase 0.39 mg/ml + rhamnosidase R5 0.5 mg/ml"}, "[8]": {"settings": "glucosidase 0.39 mg/ml, no rhamnosidase"}},
  "data": [
    {"molecule": "Variant G3: engineered glucosidase polypeptide, variant of Modestobacter marinus glucosidase SEQ ID No. 262 (protein, Seq ID No. 262 with mutations T365N, R357M, A473F, L474C, I475F, F44Y, F442Q) MNPASSTRTDTMTDTTARTDSRLTDALAALSLEQKVQLLTGRDYWNTWPIEEIGLRRILVSDGPSGVRGEVWDERDPSLNLPSATALASAWDPDIARRYGAAAAVEARRKGVDVVLGPTINLHRSPLGGRHFEAFSEDPVLTAELAAAYVTGVQDNGVGATPKHYVANDFETDRFTVDVRADERTLRELYLLAFEKAVTEARAWLVMSAYNGINGATATENDLLETPLNSEWGFDGVVVSDWTAVRSLESARSSQDLVMPGPVGPWGDALVEAVRTGAIDESVVDRKVLRILTLAQRVGALEGSPAIDPVWVEDGVALAREAAVEGTVLLENRDELPWDATSLRKVAVIGNNAAAAMTQGGGSANVLPEYTVSPLDGVRAALPDAEVSYSLGAVVQDGLVELPLAELTNPVTGGPGLRARFLTADGAELFGEDRRKSVLVYQGGDAPIAAAATYELTARWTPTESQTVRLGFFCFGAAQLYVDGELLVESDLQPSGTDLGAAFMNPLTASAEVELVAGKPVDVRLVHDLSAKEGFAAHALFLQLGTEPAEVDEDALIAEAAEAAEAADVVLVVVGTNSIVESEGYDRESLSLPGRQDDLVRAVVAANPRTVVLVNAGAPVLLPWRDDVAALLLGWFGGQEFGNAVADVLLGVAEPGGRLPTTWPAAEADVPVLSCTPVDGVVEYTEGIHIGYRAWLRSGATPAYWFGSGQGYTCVELTGVEAPSRARPGEIVTVSVEVANRGERDGKQVVQVYAEKPDSTVDRPVRWLVGSAPVRVPAGQTAQVEVAVPTRYLAHWAGGWQYEPGVYRLRVGTTAVELPLETTLEVSA", "values": [
      {"measurement": "Cumulative FIOP (cf WT)", "setting": "[1]; [3]", "result": 125},
      {"measurement": "FIOP", "setting": "[1]; [3]", "result": 2.5},
      {"measurement": "% change in Left Peak", "setting": "[2]; [4]", "result": "−31", "unit": "%"},
      {"measurement": "% change in Middle Peak", "setting": "[2]; [4]", "result": "−79", "unit": "%"},
      {"measurement": "% change in Right Peak", "setting": "[2]; [4]", "result": 270, "unit": "%"},
      {"measurement": "Cumulative Fold improvement in primary enzyme loading × time", "setting": "[2]; [4]", "result": 64},
      {"measurement": "Fold improvement in primary enzyme loading × time", "setting": "[2]; [4]", "result": 2.0},
      {"measurement": "% Right Peak", "setting": "[2]; [4]", "result": 70, "unit": "%"},
      {"measurement": "% Left Peak", "setting": "[2]; [4]", "result": 21, "unit": "%"},
      {"measurement": "% Middle Peak", "setting": "[2]; [4]", "result": 9, "unit": "%"},
      {"measurement": "% change in Left Peak", "setting": "[2]; [5]", "result": "−19", "unit": "%"},
      {"measurement": "% change in Middle Peak", "setting": "[2]; [5]", "result": "−50", "unit": "%"},
      {"measurement": "% change in Right Peak", "setting": "[2]; [5]", "result": 206, "unit": "%"},
      {"measurement": "Cumulative Fold improvement in primary enzyme loading × time", "setting": "[2]; [5]", "result": 64},
      {"measurement": "Fold improvement in primary enzyme loading × time", "setting": "[2]; [5]", "result": 2.0},
      {"measurement": "% Right Peak", "setting": "[2]; [5]", "result": 53, "unit": "%"},
      {"measurement": "% Left Peak", "setting": "[2]; [5]", "result": 24, "unit": "%"},
      {"measurement": "% Middle Peak", "setting": "[2]; [5]", "result": 22, "unit": "%"}
    ]},
    {"molecule": "Variant G4: engineered glucosidase polypeptide, variant of Modestobacter marinus glucosidase SEQ ID No. 262 (protein, Seq ID No. 262 with mutations T365N, R357M, A473F, L474C, I475F, F44Y, F442Q, V263L, F541I) MNPASSTRTDTMTDTTARTDSRLTDALAALSLEQKVQLLTGRDYWNTWPIEEIGLRRILVSDGPSGVRGEVWDERDPSLNLPSATALASAWDPDIARRYGAAAAVEARRKGVDVVLGPTINLHRSPLGGRHFEAFSEDPVLTAELAAAYVTGVQDNGVGATPKHYVANDFETDRFTVDVRADERTLRELYLLAFEKAVTEARAWLVMSAYNGINGATATENDLLETPLNSEWGFDGVVVSDWTAVRSLESARSSQDLVMPGPLGPWGDALVEAVRTGAIDESVVDRKVLRILTLAQRVGALEGSPAIDPVWVEDGVALAREAAVEGTVLLENRDELPWDATSLRKVAVIGNNAAAAMTQGGGSANVLPEYTVSPLDGVRAALPDAEVSYSLGAVVQDGLVELPLAELTNPVTGGPGLRARFLTADGAELFGEDRRKSVLVYQGGDAPIAAAATYELTARWTPTESQTVRLGFFCFGAAQLYVDGELLVESDLQPSGTDLGAAFMNPLTASAEVELVAGKPVDVRLVHDLSAKEGFAAHALILQLGTEPAEVDEDALIAEAAEAAEAADVVLVVVGTNSIVESEGYDRESLSLPGRQDDLVRAVVAANPRTVVLVNAGAPVLLPWRDDVAALLLGWFGGQEFGNAVADVLLGVAEPGGRLPTTWPAAEADVPVLSCTPVDGVVEYTEGIHIGYRAWLRSGATPAYWFGSGQGYTCVELTGVEAPSRARPGEIVTVSVEVANRGERDGKQVVQVYAEKPDSTVDRPVRWLVGSAPVRVPAGQTAQVEVAVPTRYLAHWAGGWQYEPGVYRLRVGTTAVELPLETTLEVSA", "values": [
      {"measurement": "Cumulative FIOP (cf WT)", "setting": "[1]; [6]", "result": 300},
      {"measurement": "FIOP", "setting": "[1]; [6]", "result": 2.4},
      {"measurement": "% change in Left Peak", "setting": "[2]; [7]", "result": "−28", "unit": "%"},
      {"measurement": "% change in Middle Peak", "setting": "[2]; [7]", "result": "−79", "unit": "%"},
      {"measurement": "% change in Right Peak", "setting": "[2]; [7]", "result": 267, "unit": "%"},
      {"measurement": "Cumulative Fold improvement in primary enzyme loading × time", "setting": "[2]; [7]", "result": 128},
      {"measurement": "Fold improvement in primary enzyme loading × time", "setting": "[2]; [7]", "result": 2.0},
      {"measurement": "% Right Peak", "setting": "[2]; [7]", "result": 69, "unit": "%"},
      {"measurement": "% Left Peak", "setting": "[2]; [7]", "result": 22, "unit": "%"},
      {"measurement": "% Middle Peak", "setting": "[2]; [7]", "result": 9, "unit": "%"},
      {"measurement": "% change in Left Peak", "setting": "[2]; [8]", "result": "−22", "unit": "%"},
      {"measurement": "% change in Middle Peak", "setting": "[2]; [8]", "result": "−49", "unit": "%"},
      {"measurement": "% change in Right Peak", "setting": "[2]; [8]", "result": 208, "unit": "%"},
      {"measurement": "Cumulative Fold improvement in primary enzyme loading × time", "setting": "[2]; [8]", "result": 128},
      {"measurement": "Fold improvement in primary enzyme loading × time", "setting": "[2]; [8]", "result": 2.0},
      {"measurement": "% Right Peak", "setting": "[2]; [8]", "result": 54, "unit": "%"},
      {"measurement": "% Left Peak", "setting": "[2]; [8]", "result": 23, "unit": "%"},
      {"measurement": "% Middle Peak", "setting": "[2]; [8]", "result": 23, "unit": "%"}
    ]}
  ]
}
